Results: article PMC9340540, “A heterotypic assembly mechanism regulates CHIP E3 ligase activity” (The EMBO Journal, 2022)
Each block holds one binder with its values, some of them ahead of it.

Key:
[1] = biological target: T1, M1 linked linear ubiquitin (di-Ub) (UniProt P0CG48 1-76; P0CG48 1-76); assay: SPR; Biacore S200, 25°C; His-tagged UFD-2 or His-tagged Ufd2p immobilised on NTA chips at 20 μg/ml; single-cycle kinetics with M1 diUb at 0, 100, 200, 500, 1,000 and 2,000 nM; 10 mM HEPES, 150 mM NaCl, 0.05% Tween 20, 0.1% BSA, 50 μM EDTA, pH 8.0; conditions: both partners purified
T1 construct: ubiquitin, first (distal) unit of the M1-linked dimer; ubiquitin, second (proximal) unit, joined by its M1 to G76 of the first unit; also called linear di-Ub; M1 diUb conjugates; source: bought: UbiQ (UbiQ-L01)

CHN-1 = CHN-1 (C. elegans); assay: cell-based or functional assay
CHN-1 (C. elegans), sequence (main, as listed by the source): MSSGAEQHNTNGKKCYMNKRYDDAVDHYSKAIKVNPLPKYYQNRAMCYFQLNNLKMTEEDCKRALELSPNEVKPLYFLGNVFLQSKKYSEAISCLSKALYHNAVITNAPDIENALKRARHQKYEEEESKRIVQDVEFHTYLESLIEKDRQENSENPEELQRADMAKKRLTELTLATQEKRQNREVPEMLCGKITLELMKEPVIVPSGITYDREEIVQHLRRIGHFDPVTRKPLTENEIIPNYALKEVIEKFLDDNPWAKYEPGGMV

binding result [1]: binds
B1: 6xHis::Ufd2p (enzyme, S. cerevisiae, UniProt P54860 1-961, looked up)
chain: MTAIEDILQITTDPSDTRGYSLLKSEEVPQGSTLGVDFIDTLLLYQLTENEKLDKPFEYLNDCFRRNQQQKRITKNKPNAESLHSTFQEIDRLVIGYGVVALQIENFCMNGAFINYITGIVSNVNSYTDFLSQIIQRAILEGTALDLLNAVFPTLLEYCNKHVSHFDLNESVIYNNVLTIFELFVTFKPIAEIFTKIDGFFADYSCKPQDFERKTILGPILSLSPIEAAVAIRNYGDNLLRSKQQTAMIHESLQAEHKVVIDRLFFIVDKLVRGSLNSRTDMISYFAHIANKNHLRRADHPPFKELSSNGFMSNITLLLVRFSQPFLDISYKKIDKIDANYFNNPSLFIDLSGETRLNSDFKEADAFYDKNRKTADSKPNFISDCFFLTLTYLHYGLGGTLSFEEKMGSEIKALKEEIEKVKKIAANHDVFARFITAQLSKMEKALKTTESLRFALQGFFAHRSLQLEVFDFICGASTFLIRVVDPEHEFPFKQIKLPLIPDQIGVENVDNADFLRAHAPVPFKYYPEFVVEGPVNYSLYISKYQTSPIFRNPRLGSFVEFTTMVLRCPELVSNPHLKGKLVQLLSVGAMPLTDNSPGFMMDIFEHDELVNKNLLYALLDFYVIVEKTGSSSQFYDKFNSRYSISIILEELYYKIPSYKNQLIWQSQNNADFFVRFVARMLNDLTFLLDEGLSNLAEVHNIQNELDNRARGAPPTREEEDKELQTRLASASRQAKSSCGLADKSMKLFEIYSKDIPAAFVTPEIVYRLASMLNYNLESLVGPKCGELKVKDPQSYSFNPKDLLKALTTVYINLSEQSEFISAVAKDERSFNRNLFVRAVDILGRKTGLASPEFIEKLLNFANKAEEQRKADEEEDLEYGDVPDEFLDPLMYTIMKDPVILPASKMNIDRSTIKAHLLSDSTDPFNRMPLKLEDVTPNEELRQKILCFKKQKKEEAKHKASE
notes: Ufd2p, S. cerevisiae; from pET28a-6xHis::Ufd2p; The plasmid is from Liu et al (2017); also called S. cerevisiae Ufd2p; His-tagged Ufd2p; source: bacterial expression system, purified; not shown: 6xHis, N-terminal, kept

discharge of Ub-charged UBE2D1 by CHN-1, alone or mixed with UFD-2^P951A (CHN-1): ≥ 2 fold
B2: 6xHis::UFD-2^P951A (enzyme, C. elegans, UniProt Q09349 1-984, looked up)
chain: MIEDEKAGLQPMDISDASVFFFQADVESKDFLTSLFDCEGKSDDRMLRYADAIIDVQNLNFDVSPQCLQSNIAEIITKFVLLSQDGSRRGLSRSFNFIDPDIIAGCREEDAIEFLLINFVRCHHELGKSGTSNCYKKTLESTRKAVFSVFVMIQRGYLESQLRSQHASLVFTKRLLEDTVSNVFLRTLVEYLASTDECDEDAITETFNPIFGILRSGIICQRFEDNKDEIVRQILRVMNLLLSIRLPSNGPRPLSNLLVNREDFLPTPSEKIQGREFGLMSFLGPFFSYGLESSARRPNHRVFVDCEEDARKYDGSVNTEQKLYFQRMDPIRTMLHQLMLPLASDQGSRNKTLRWIATIISTNDIRTRSHYDPSDVLCDHYMTNFLSVMYMFSEKIDLSKIIVDYPFLPSSLINISKETRLKMDESGAVAFASQFADRPDEYHFSTVCFFLTIAAQRLVIPPLMNQISEYSRHLKELKHKINALKEKLNTVSGFERAEVEKKLNYETEHWKLMSRHLLCVKTQAQDPALMASSMDFVDKQMKFILNLLCDNLDLLGDDSQLPTEVSQMFCALPEYFLEDALDFYIFAISNGMKLLMERNADWISRLTVLFTQYHYIKSPFLVSKLVRVLSSIQPPLWFNVVRLRMAQENLLMCMIKFYSDFEDNGDFYEKFNVRGNIQYMLEKMEEDMFYKGKFMDMARECGAEFIRFVNMVINDATWCIDESLSGLKSIHDVEKKMANKVEWDNTDQEIRNQDLGVYEEAKRKVKGWLGTAKSNLKLLLSITVNSPEPFRTPVLGERLAAMLNHNLSQLIGSKASELKVKDPRSYGWEPREFVSLLISIYLKLNMPAFVKYIAYDERTYSPEFFHNAIECMRKNSIVGFSQLESFEHLAEDVKKEYEAKAELEEEYDDVPEEFKDPIMDAIMVDPVKLPSGHVMDRAVIERHLLSTPNNAFNRAPLSHNELSPDSELKAKIQEWICQKRNSKK
